Measurements taken from article PMC9481167, “Biosynthetic proteins targeting the SARS-CoV-2 spike as anti-virals” (PLoS Pathogens, 2022).

B1: VHH H11D4 (VHH)
VHH: QVQLVESGGGLMQAGGSLRLSCAVSGRTFSTAAMGWFRQAPGKEREFVAAIRWSGGSAYYADSVKGRFTISRDKAKNTVYLQMNSLKYEDTAVYYCARTENVRSLLSDYATWPYDYWGQGTQVTVSS
notes: also called VHH11D4
B2: VHH-72 (VHH)
VHH: QVQLQESGGGLVQAGGSLRLSCAASGRTFSEYAMGWFRQAPGKEREFVATISWSGGSTYYTDSVKGRFTISRDNAKNTVYLQMNSLKPDDTAVYYCAAAGLGTVVSEWDYDYDYWGQGTQVTVSS

Target: receptor binding domain (RBD) of the SARS-CoV-2 spike (SARS-CoV-2, UniProt P0DTC2, biotin (biotinylated; site not stated))
Test: BLI
Conditions: both partners purified

| Binder | binding result |
| --- | --- |
| B1 | binds |
| B2 | binds |
